Laboratory results reported in paper PMC9075797.

These substances were tested against SARS-CoV-2 RBD tagged with a C-terminal Fc tag (SARS-CoV-2) (UniProt P0DTC2) (assay: BLI).

Point of comparison: “(Nb1_(13))2, Tet-linked homodimer of VHH72 with Tet3.0 at Gln13”, Kd 0.046 µM. Against it:
- (Nb1N)2, Tet-linked homodimer of VHH72 with Tet3.0 at the N terminus — 3.3-fold lower, 0.0138 µM
- (Nb1N)3, Tet-linked homotrimer of VHH72 with Tet3.0 at the N terminus — 20-fold lower, 0.00231 µM
- (Nb1N)-(Nb2_(42)), Tet-linked heterodimer of VHH72 (Tet3.0 at the N terminus) and H11-H4 (Tet3.0 at Gly42) — 12-fold lower, 0.00393 µM
- (Nb1_(42))2, Tet-linked homodimer of VHH72 with Tet3.0 at Gly42 — 1.7-fold lower, 0.0275 µM

Point of comparison: “(Nb1_(13))2, Tet-linked homodimer of VHH72 with Tet3.0 at Gln13”, koff 0.00156 s⁻¹. Against it:
- (Nb1N)2, Tet-linked homodimer of VHH72 with Tet3.0 at the N terminus — within 1.5-fold, 0.00119 s⁻¹
- (Nb1N)3, Tet-linked homotrimer of VHH72 with Tet3.0 at the N terminus — 2.8-fold lower, 0.000566 s⁻¹
- (Nb1N)-(Nb2_(42)), Tet-linked heterodimer of VHH72 (Tet3.0 at the N terminus) and H11-H4 (Tet3.0 at Gly42) — 2.6-fold lower, 0.000593 s⁻¹
- (Nb1_(42))2, Tet-linked homodimer of VHH72 with Tet3.0 at Gly42 — within 1.5-fold, 0.00201 s⁻¹

Point of comparison: “(Nb1_(13))2, Tet-linked homodimer of VHH72 with Tet3.0 at Gln13”, kon 33800 M⁻¹ s⁻¹. Against it:
- (Nb1N)2, Tet-linked homodimer of VHH72 with Tet3.0 at the N terminus — 2.5-fold higher, 85800 M⁻¹ s⁻¹
- (Nb1N)3, Tet-linked homotrimer of VHH72 with Tet3.0 at the N terminus — 7.3-fold higher, 246000 M⁻¹ s⁻¹
- (Nb1N)-(Nb2_(42)), Tet-linked heterodimer of VHH72 (Tet3.0 at the N terminus) and H11-H4 (Tet3.0 at Gly42) — 4.5-fold higher, 151000 M⁻¹ s⁻¹
- (Nb1_(42))2, Tet-linked homodimer of VHH72 with Tet3.0 at Gly42 — 2.2-fold higher, 73100 M⁻¹ s⁻¹

The substances below were run against SARS-CoV-2 RBD tagged with a C-terminal Fc tag (SARS-CoV-2; strain not stated, ancestral (Wuhan-Hu-1) assumed) (UniProt P0DTC2) (assay: BLI).

Point of comparison: “Nb1-Nb1-Nb1 tail-to-head genetically linked trimer of VHH72”, koff 0.00156 s⁻¹. Against it:
- Nb1-Nb1 tail-to-head genetically linked dimer of VHH72 — 2-fold higher, 0.00314 s⁻¹
- (Nb1C)2, Tet-linked homodimer of VHH72 with Tet3.0 at the C terminus — 4.1-fold higher, 0.0064 s⁻¹

Point of comparison: “(Nb1C)2, Tet-linked homodimer of VHH72 with Tet3.0 at the C terminus”, kon 48100 M⁻¹ s⁻¹. Against it:
- Nb1-Nb1 tail-to-head genetically linked dimer of VHH72 — within 1.5-fold, 35400 M⁻¹ s⁻¹
- Nb1-Nb1-Nb1 tail-to-head genetically linked trimer of VHH72 — within 1.5-fold, 57900 M⁻¹ s⁻¹

Point of comparison: “Nb1-Nb1-Nb1 tail-to-head genetically linked trimer of VHH72”, Kd 0.0279 µM. Against it:
- (Nb1C)2, Tet-linked homodimer of VHH72 with Tet3.0 at the C terminus — 4.7-fold higher, 0.132 µM
